Source: publication PMC11525548

Experiments:
[1] = molecular target: tusa Fab+Fc light chain Pro95Ala variant (human) (UniProt P01834); assay: SPR
[2] = molecular target: human CEACAM5 extracellular domain (Homo sapiens) (UniProt P06731); assay: SPR

Substance | Kd [1] [nM] | koff [1] [s⁻¹] | kon [1] [M⁻¹ s⁻¹] | Kd [2] [nM] | koff [2] [s⁻¹] | kon [2] [M⁻¹ s⁻¹] | t1/2 of dissociation [2] [s]
human CEACAM5 extracellular domain (from UniProt P06731 35-685) (domain or fragment) | 13500 | 0.0177 | 1310 |  |  |  | 
tusa Fab+Fc heavy chain His99Ala variant (antibody) |  |  |  | 306 | 0.0199 | 64800 | 
tusa Fab+Fc heavy chain Tyr50Ala variant (antibody) |  |  |  | 2010 | 0.0531 | 26400 | 
tusa Fab+Fc light chain His91Ala variant (antibody) |  |  |  |  | 0.0637 | 73200 | 
tusa Fab+Fc light chain Phe30Ala variant (antibody) |  |  |  | 1340 | 0.0362 |  | 18
tusa Fab+Fc light chain Tyr92Ala variant (antibody) |  |  |  | 1790 | 0.0552 | 30800 | 
tusamitamab antigen-binding fragment region plus the fragment crystallizable region, wild type (antibody) |  |  |  | 14 | 0.00386 | 275000 | 

The remaining lines, values ahead:

Kd [1] [nM] | koff [1] [s⁻¹] | kon [1] [M⁻¹ s⁻¹] | Kd [2] [nM] | koff [2] [s⁻¹] | kon [2] [M⁻¹ s⁻¹] | t1/2 of dissociation [2] [s] | Substance
 |  |  | 8.2 | 0.00322 | 395000 |  | tusa Fab+Fc heavy chain Gly26Ala variant (antibody)
 |  |  | 8.2 | 0.00368 |  |  | tusa Fab+Fc heavy chain Phe29Ala variant (antibody)
 |  |  | 6.7 | 0.00205 | 307000 |  | tusa Fab+Fc heavy chain Ser30Ala variant (antibody)
 |  |  | 5.6 |  | 321000 |  | tusa Fab+Fc heavy chain Ser53Ala variant (antibody)
 |  |  | 8.2 | 0.00238 | 291000 |  | tusa Fab+Fc light chain Ser31Ala variant (antibody)
